Experiments:
[1] = target: anti-A2M antibody (MAB) labeled with a donor fluorophore; experiment: competitive TR-FRET, competitor acceptor-labeled isolated A2M; unlabeled A2M 0 ug/mL, mean of 4 replicates (FIG. 2G)
[2] = target: anti-A2M antibody (MAB) labeled with a donor fluorophore; experiment: competitive TR-FRET, competitor acceptor-labeled isolated A2M, whole blood; A2M 500 ug/mL, singleplex cals, 30 min (FIG. 2I)
[3] = target: anti-A2M antibody (MAB) labeled with a donor fluorophore; experiment: competitive TR-FRET, competitor acceptor-labeled isolated A2M; unlabeled A2M 2000 ug/mL, mean of 4 replicates (FIG. 2G)
[4] = target: anti-A2M antibody (MAB) labeled with a donor fluorophore; experiment: competitive TR-FRET, competitor acceptor-labeled isolated A2M, whole blood; A2M 4000 ug/mL, multiplex cals, 5 min (FIG. 2I)
[5] = target: anti-A2M antibody (MAB) labeled with a donor fluorophore; experiment: competitive TR-FRET, competitor acceptor-labeled isolated A2M, whole blood; A2M 0 ug/mL, multiplex cals, 5 min (FIG. 2I)
[6] = target: anti-A2M antibody (MAB) labeled with a donor fluorophore; experiment: competitive TR-FRET, competitor acceptor-labeled isolated A2M, whole blood; A2M 200 ug/mL, multiplex cals, 5 min (FIG. 2I)
[7] = target: anti-A2M antibody (MAB) labeled with a donor fluorophore; experiment: competitive TR-FRET, competitor acceptor-labeled isolated A2M, whole blood; A2M 1000 ug/mL, multiplex cals, 30 min (FIG. 2I)
[8] = target: anti-A2M antibody (MAB) labeled with a donor fluorophore; experiment: competitive TR-FRET, competitor acceptor-labeled isolated A2M, whole blood; A2M 0 ug/mL, multiplex cals, 30 min (FIG. 2I)
[9] = target: anti-A2M antibody (MAB) labeled with a donor fluorophore; experiment: competitive TR-FRET, competitor acceptor-labeled isolated A2M, whole blood; A2M 500 ug/mL, multiplex cals, 5 min (FIG. 2I)
[10] = target: anti-A2M antibody (MAB) labeled with a donor fluorophore; experiment: competitive TR-FRET, competitor acceptor-labeled isolated A2M, whole blood; A2M 0 ug/mL, singleplex cals, 30 min (FIG. 2I)
[11] = target: anti-A2M antibody (MAB) labeled with a donor fluorophore; experiment: competitive TR-FRET, competitor acceptor-labeled isolated A2M; unlabeled A2M 4000 ug/mL, mean of 4 replicates (FIG. 2G)
[12] = target: anti-A2M antibody (MAB) labeled with a donor fluorophore; experiment: competitive TR-FRET, competitor acceptor-labeled isolated A2M, whole blood; A2M 4000 ug/mL, singleplex cals, 5 min (FIG. 2I)
[13] = target: anti-A2M antibody (MAB) labeled with a donor fluorophore; experiment: competitive TR-FRET, competitor acceptor-labeled isolated A2M; unlabeled A2M 1000 ug/mL, mean of 4 replicates (FIG. 2G)
[14] = target: anti-A2M antibody (MAB) labeled with a donor fluorophore; experiment: competitive TR-FRET, competitor acceptor-labeled isolated A2M, whole blood; A2M 4000 ug/mL, multiplex cals, 30 min (FIG. 2I)
[15] = target: anti-A2M antibody (MAB) labeled with a donor fluorophore; experiment: competitive TR-FRET, competitor acceptor-labeled isolated A2M; unlabeled A2M 200 ug/mL, mean of 4 replicates (FIG. 2G)
[16] = target: anti-A2M antibody (MAB) labeled with a donor fluorophore; experiment: competitive TR-FRET, competitor acceptor-labeled isolated A2M, whole blood; A2M 2000 ug/mL, singleplex cals, 30 min (FIG. 2I)
[17] = target: anti-A2M antibody (MAB) labeled with a donor fluorophore; experiment: competitive TR-FRET, competitor acceptor-labeled isolated A2M, whole blood; A2M 2000 ug/mL, multiplex cals, 30 min (FIG. 2I)
[18] = target: anti-A2M antibody (MAB) labeled with a donor fluorophore; experiment: competitive TR-FRET, competitor acceptor-labeled isolated A2M; unlabeled A2M 500 ug/mL, mean of 4 replicates (FIG. 2G)
[19] = target: anti-A2M antibody (MAB) labeled with a donor fluorophore; experiment: competitive TR-FRET, competitor acceptor-labeled isolated A2M, whole blood; A2M 1000 ug/mL, singleplex cals, 30 min (FIG. 2I)
[20] = target: anti-A2M antibody (MAB) labeled with a donor fluorophore; experiment: competitive TR-FRET, competitor acceptor-labeled isolated A2M, whole blood; A2M 1000 ug/mL, singleplex cals, 5 min (FIG. 2I)
[21] = target: anti-A2M antibody (MAB) labeled with a donor fluorophore; experiment: competitive TR-FRET, competitor acceptor-labeled isolated A2M, whole blood; A2M 2000 ug/mL, singleplex cals, 5 min (FIG. 2I)
[22] = target: anti-A2M antibody (MAB) labeled with a donor fluorophore; experiment: competitive TR-FRET, competitor acceptor-labeled isolated A2M, whole blood; A2M 200 ug/mL, singleplex cals, 5 min (FIG. 2I)
[23] = target: anti-A2M antibody (MAB) labeled with a donor fluorophore; experiment: competitive TR-FRET, competitor acceptor-labeled isolated A2M, whole blood; A2M 2000 ug/mL, multiplex cals, 5 min (FIG. 2I)
[24] = target: anti-A2M antibody (MAB) labeled with a donor fluorophore; experiment: competitive TR-FRET, competitor acceptor-labeled isolated A2M, whole blood; A2M 500 ug/mL, singleplex cals, 5 min (FIG. 2I)
[25] = target: anti-A2M antibody (MAB) labeled with a donor fluorophore; experiment: competitive TR-FRET, competitor acceptor-labeled isolated A2M, whole blood; A2M 1000 ug/mL, multiplex cals, 5 min (FIG. 2I)
[26] = target: anti-A2M antibody (MAB) labeled with a donor fluorophore; experiment: competitive TR-FRET, competitor acceptor-labeled isolated A2M, whole blood; A2M 200 ug/mL, multiplex cals, 30 min (FIG. 2I)
[27] = target: anti-A2M antibody (MAB) labeled with a donor fluorophore; experiment: competitive TR-FRET, competitor acceptor-labeled isolated A2M, whole blood; A2M 0 ug/mL, singleplex cals, 5 min (FIG. 2I)
[28] = target: anti-A2M antibody (MAB) labeled with a donor fluorophore; experiment: competitive TR-FRET, competitor acceptor-labeled isolated A2M, whole blood; A2M 200 ug/mL, singleplex cals, 30 min (FIG. 2I)
[29] = target: anti-A2M antibody (MAB) labeled with a donor fluorophore; experiment: competitive TR-FRET, competitor acceptor-labeled isolated A2M, whole blood; A2M 500 ug/mL, multiplex cals, 30 min (FIG. 2I)
[30] = target: anti-A2M antibody (MAB) labeled with a donor fluorophore; experiment: competitive TR-FRET, competitor acceptor-labeled isolated A2M, whole blood; A2M 4000 ug/mL, singleplex cals, 30 min (FIG. 2I)

B1: A2M (alpha-2-macroglobulin), unlabeled calibrator / analyte (protein)
chain: SVSGKPQYMVLVPSLLHTETTEKGCVLLSYLNETVTVSASLESVRGNRSLFTDLEAENDVLHCVAFAVPKSSSNEEVMFLTVQVKGPTQEFKKRTTVMVKNEDSLVFVQTDKSIYKPGQTVKFRVVSMDENFHPLNELIPLVYIQDPKGNRIAQWQSFQLEGGLKQFSFPLSSEPFQGSYKVVVQKKSGGRTEHPFTVEEFVLPKFEVQVTVPKIITILEEEMNVSVCGLYTYGKPVPGHVTVSICRKYSDASDCHGEDSQAFCEKFSGQLNSHGCFYQQVKTKVFQLKRKEYEMKLHTEAQIQEEGTVVELTGRQSSEITRTITKLSFVKVDSHFRQGIPFFGQVRLVDGKGVPIPNKVIFIRGNEANYYSNATTDEHGLVQFSINTTNVMGTSLTVRVNYKDRSPCYGYQWVSEEHEEAHHTAYLVFSPSKSFVHLEPMSHELPCGHTQTVQAHYILNGGTLLGLKKLSFYYLIMAKGGIVRTGTHGLLVKQEDMKGHFSISIPVKSDIAPVARLLIYAVLPTGDVIGDSAKYDVENCLANKVDLSFSPSQSLPASHAHLRVTAAPQSVCALRAVDQSVLLMKPDAELSASSVYNLLPEKDLTGFPGPLNDQDNEDCINRHNVYINGITYTPVSSTNEKDMYSFLEDMGLKAFTNSKIRKPKMCPQLQQYEMHGPEGLRVGFYESDVMGRGHARLVHVEEPHTETVRKYFPETWIWDLVVVNSAGVAEVGVTVPDTITEWKAGAFCLSEDAGLGISSTASLRAFQPFFVELTMPYSVIRGEAFTLKATVLNYLPKCIRVSVQLEASPAFLAVPVEKEQAPHCICANGRQTVSWAVTPKSLGNVNFTVSAEALESQELCGTEVPSVPEHGRKDTVIKPLLVEPEGLEKETTFNSLLCPSGGEVSEELSLKLPPNVVEESARASVSVLGDILGSAMQNTQNLLQMPYGCGEQNMVLFAPNIYVLDYLNETQQLTPEIKSKAIGYLNTGYQRQLNYKHYDGSYSTFGERYGRNQGNTWLTAFVLKTFAQARAYIFIDEAHITQALIWLSQRQKDNGCFRSSGSLLNNAIKGGVEDEVTLSAYITIALLEIPLTVTHPVVRNALFCLESAWKTAQEGDHGSHVYTKALLAYAFALAGNQDKRKEVLKSLNEEAVKKDNSVHWERPQKPKAPVGHFYEPQAPSAEVEMTSYVLLAYLTAQPAPTSEDLTSATNIVKWITKQQNAQGGFSSTQDTVVALHALSKYGAATFTRTGKAAQVTIQSSGTFSSKFQVDNNNRLLLQQVSLPELPGEYSMKVTGEGCVYLQTSLKYNILPEKEEFPFALGVQTLPQTCDEPKAHTSFQISLSVSYTGSRSASNMAIVDVKMVSGFIPLKPTVKMLERSNHVSRTEVSSNHVLIYLDKVSNQTLSLFFTVLQDVPVRDLKPAIVKVYDYYETDEFAIAEYNAPCSKDLGNA
- F/B Mean [1]: 1
- F/B [2]: 0.71
- F/B Mean [3]: 0.532
- F/B [4]: 0.34
- F/B [5]: 1
- F/B [6]: 0.83
- F/B [7]: 0.56
- F/B [8]: 1
- F/B [9]: 0.71
- F/B [10]: 1
- F/B Mean [11]: 0.393
- F/B [12]: 0.33
- F/B Mean [13]: 0.666
- F/B [14]: 0.33
- F/B Mean [15]: 0.905
- F/B [16]: 0.43
- F/B [17]: 0.45
- F/B Mean [18]: 0.795
- F/B [19]: 0.59
- F/B [20]: 0.58
- F/B [21]: 0.43
- F/B [22]: 0.88
- F/B [23]: 0.45
- F/B [24]: 0.72
- F/B [25]: 0.58
- F/B [26]: 0.87
- F/B [27]: 1
- F/B [28]: 0.88
- F/B [29]: 0.74
- F/B [30]: 0.33
